Assay results as given in publication PMC8285493 (Nature Communications, 2021).
Read-outs that look alike come from different tables or passages of the source.

B1: full-length SLFN12 (natural protein, human, UniProt Q8IYM2 1-578, looked up)
chain: MNISVDLETNYAELVLDVGRVTLGENSRKKMKDCKLRKKQNESVSRAMCALLNSGGGVIKAEIENEDYSYTKDGIGLDLENSFSNILLFVPEYLDFMQNGNYFLIFVKSWSLNTSGLRITTLSSNLYKRDITSAKVMNATAALEFLKDMKKTRGRLYLRPELLAKRPCVDIQEENNMKALAGVFFDRTELDRKEKLTFTESTHVEIKNFSTEKLLQRIKEILPQYVSAFANTDGGYLFIGLNEDKEIIGFKAEMSDLDDLEREIEKSIRKMPVHHFCMEKKKINYSCKFLGVYDKGSLCGYVCALRVERFCCAVFAKEPDSWHVKDNRVMQLTRKEWIQFMVEAEPKFSSSYEEVISQINTSLPAPHSWPLLEWQRQRHHCPGLSGRITYTPENLCRKLFLQHEGLKQLICEEMDSVRKGSLIFSRSWSVDLGLQENHKVLCDALLISQDSPPVLYTFHMVQDEEFKGYSTQTALTLKQKLAKIGGYTKKVCVMTKIFYLSPEGMTSCQYDLRSQVIYPESYYFTRRKYLLKALFKALKRLKSLRDQFSFAENLYQIIGIDCFQKNDKKMFKSCRRLT
B2: catalytic domain of PDE3A (PDE3A^CAT), residues 640-1141 (domain or fragment, human, UniProt Q14432 640-1141, looked up)
chain: EDETECLREPLRKASACSTYAPETMMFLDKPILAPEPLVMDNLDSIMEQLNTWNFPIFDLVENIGRKCGRILSQVSYRLFEDMGLFEAFKIPIREFMNYFHALEIGYRDIPYHNRIHATDVLHAVWYLTTQPIPGLSTVINDHGSTSDSDSDSGFTHGHMGYVFSKTYNVTDDKYGCLSGNIPALELMALYVAAAMHDYDHPGRTNAFLVATSAPQAVLYNDRSVLENHHAAAAWNLFMSRPEYNFLINLDHVEFKHFRFLVIEAILATDLKKHFDFVAKFNGKVNDDVGIDWTNENDRLLVCQMCIKLADINGPAKCKELHLQWTDGIVNEFYEQGDEEASLGLPISPFMDRSAPQLANLQESFISHIVGPLCNSYDSAGLMPGKWVEDSDESGDTDDPEEEEEEAPAPNEEETCENNESPKKKTFKRRKIYCQITQHLLQNHKMWKKVIEEEQRLAGIENQSLDQTPQSHSSEQIQAIKEEEEEKGKPRGEEIPTQKPDQ
B3: biotinylated Avi-tagged PDE3A^CAT (domain or fragment, human, UniProt Q14432 640-1141, looked up)
chain: EDETECLREPLRKASACSTYAPETMMFLDKPILAPEPLVMDNLDSIMEQLNTWNFPIFDLVENIGRKCGRILSQVSYRLFEDMGLFEAFKIPIREFMNYFHALEIGYRDIPYHNRIHATDVLHAVWYLTTQPIPGLSTVINDHGSTSDSDSDSGFTHGHMGYVFSKTYNVTDDKYGCLSGNIPALELMALYVAAAMHDYDHPGRTNAFLVATSAPQAVLYNDRSVLENHHAAAAWNLFMSRPEYNFLINLDHVEFKHFRFLVIEAILATDLKKHFDFVAKFNGKVNDDVGIDWTNENDRLLVCQMCIKLADINGPAKCKELHLQWTDGIVNEFYEQGDEEASLGLPISPFMDRSAPQLANLQESFISHIVGPLCNSYDSAGLMPGKWVEDSDESGDTDDPEEEEEEAPAPNEEETCENNESPKKKTFKRRKIYCQITQHLLQNHKMWKKVIEEEQRLAGIENQSLDQTPQSHSSEQIQAIKEEEEEKGKPRGEEIPTQKPDQ
modifications: biotin on the Avi-tag (BirA ligase)

Assays:
SEC-MALS [1] = target: the molecule itself; assay: SEC-MALS
[2] = target: B2; assay: SEC-MALS
AUC = target: the molecule itself; assay: AUC
[3] = target: B3; assay: BLI
SEC-MALS [4] = target: the molecule itself; assay: SEC-MALS; remark: listed apart in the source
His6-MBP-SLFN12 = His6-MBP-SLFN12 (human, UniProt Q8IYM2 1-578); assay: pull-down
full-length SLFN12 = target: B1; assay: BLI

Binder | stoichiometry N (SEC-MALS [1]) | stoichiometry N [2] | Kd (AUC) | KD with DNMDP [3] | stoichiometry N (SEC-MALS [4]) | binding result (His6-MBP-SLFN12) | Kd (full-length SLFN12)
B1 | 2 | 1 SLFN12 per PDE3A^CAT (2:2) | 870 nM | 65 nM | – | – | –
B2 | – | – | 40 nM | – | 2 | binds | –
B3 | – | – | – | – | – | – | 320 nM
